Results published in article PMC3527473, “The C-Terminus of ClpC1 of Mycobacterium tuberculosis Is Crucial for Its Oligomerization and Function” (PLoS ONE, 2012).

Target: the molecule itself
Assay: SEC; Superdex-200 (1×30 cm) in buffer A (50 mM Tris-HCl pH 7.6, 100 mM KCl, 5 mM DTT, 10% glycerol, 0.01% Triton X-100) with 15 mM ATP and 10 mM MgCl2; protein pre-incubated with 15 mM ATP and 10 mM MgCl2 for 30 min at 25°C; monomer to hexamer; fractions checked by SDS-PAGE

B1: ClpC1-Δ3 (N-terminal truncated mutant, both N-terminal domains deleted) (domain or fragment)
chain: REGEGVAAQVLVKLGAELTRVRQQVIQLLSGYQGKEAAEAGTGGRGGESGSPSTSLVLDQFGRNLTAAAMEGKLDPVIGREKEIERVMQVLSRRTKNNPVLIGEPGVGKTAVVEGLAQAIVHGEVPETLKDKQLYTLDLGSLVAGSRYRGDFEERLKKVLKEINTRGDIILFIDELHTLVGAGAAEGAIDAASILKPKLARGELQTIGATTLDEYRKYIEKDAALERRFQPVQVGEPTVEHTIEILKGLRDRYEAHHRVSITDAAMVAAATLADRYINDRFLPDKAIDLIDEAGARMRIRRMTAPPDLREFDEKIAEARREKESAIDAQDFEKAASLRDREKTLVAQRAEREKQWRSGDLDVVAEVDDEQIAEVLGNWTGIPVFKLTEAETTRLLRMEEELHKRIIGQEDAVKAVSKAIRRTRAGLKDPKRPSGSFIFAGPSGVGKTELSKALANFLFGDDDALIQIDMGEFHDRFTASRLFGAPPGYVGYEEGGQLTEKVRRKPFSVVLFDEIEKAHQEIYNSLLQVLEDGRLTDGQGRTVDFKNTVLIFTSNLGTSDISKPVGLGFSKGGGENDYERMKQKVNDELKKHFRPEFLNRIDDIIVFHQLTREEIIRMVDLMISRVAGQLKSKDMALVLTDAAKALLAKRGFDPVLGARPLRRTIQREIEDQLSEKILFEEVGPGQVVTVDVDNWDGEGPGEDAVFTFTGTRKPPAEPDLAKAGAHSAGGPEPAAR
binding result: binds
